Results from the MegaScale stability set (Tsuboyama et al. 2023).

B1: HHH_rd2_0155 (parent)
chain: PPDDERKKAEKAARSGNEEKAREILERLGYSEDEARELAKRLR

Variants of: B1
Assay: folding stability dG (cDNA display proteolysis); higher = more stable
Conditions: PBS, room temperature
With PPDDERKKAEKAARSGNEEKAREILERLGYSYDEARELAKRLR [E32Y] the “folding stability dG” value was 1.94 kcal/mol.
In the case of PPDDERKKAEKAARSGNEEKAREILYRLGYSEDEARELAKRLR [E26Y], the “folding stability dG” value is reported as 1.49 kcal/mol.
For PPDDERKKAEKAARSGNEEKAREILWRLGYSEDEARELAKRLR [E26W], the “folding stability dG” value was 0.866 kcal/mol.
With PPDDERKKAEKAARSGNEEKAREILVRLGYSEDEARELAKRLR [E26V] the “folding stability dG” value was 2.61 kcal/mol.
With PPDDERKKAEKAARSGNEEKAREILTRLGYSEDEARELAKRLR [E26T] the “folding stability dG” value was 1.93 kcal/mol.
With PPDDERKKAEKAARSGNEEKAREILERDGYSEDEARELAKRLR [L28D] the “folding stability dG” value was 0.418 kcal/mol.
For PPDDERKKAEKAARSGNEEKAREILERKGYSEDEARELAKRLR [L28K], the “folding stability dG” value was 0.443 kcal/mol.
In the case of PPDDERKKAEKAARSGNEEKAREILERWGYSEDEARELAKRLR [L28W], the “folding stability dG” value is reported as 1.47 kcal/mol.
In the case of PPDDERKKAEKAARSGNEEKAREILERHGYSEDEARELAKRLR [L28H], the “folding stability dG” value is reported as 0.699 kcal/mol.
For PPDDERKKAEKAARSGNEEKAREILERCGYSEDEARELAKRLR [L28C], the “folding stability dG” value was 1.85 kcal/mol.
For PPDDERKKAEKAARSGNEEKAREILERNGYSEDEARELAKRLR [L28N], the “folding stability dG” value was 0.822 kcal/mol.
For PPDDERKKAEKAARSGNEEKAREILEREGYSEDEARELAKRLR [L28E], the “folding stability dG” value was 0.577 kcal/mol.
For PPDDERKKAEKAARSGNEEKAREILERVGYSEDEARELAKRLR [L28V], the “folding stability dG” value was 0.87 kcal/mol.
For PPDDERKKAEKAARSGNEEKAREILERSGYSEDEARELAKRLR [L28S], the “folding stability dG” value was 0.685 kcal/mol.
For PPDDERKKAEKAARSGNEEKAREILERMGYSEDEARELAKRLR [L28M], the “folding stability dG” value was 2.29 kcal/mol.
For PPDDERKKAEKAARSGNEEKAREILERIGYSEDEARELAKRLR [L28I], the “folding stability dG” value was 1.7 kcal/mol.
For PPDDERKKAEKAARSGNEEKAREILERPGYSEDEARELAKRLR [L28P], the “folding stability dG” value was 0.261 kcal/mol.
In the case of PPDDERKKAEKAARSGNEEKAREILERAGYSEDEARELAKRLR [L28A], the “folding stability dG” value is reported as 1.54 kcal/mol.
For PPDDERKKAEKAARSGNEEKAREILERTGYSEDEARELAKRLR [L28T], the “folding stability dG” value was 0.615 kcal/mol.
For PPDDERKKAEKAARSGNEEKAREILERGGYSEDEARELAKRLR [L28G], the “folding stability dG” value was 0.647 kcal/mol.
In the case of PPDDERKKAEKAARSGNEEKAREILERYGYSEDEARELAKRLR [L28Y], the “folding stability dG” value is reported as 0.983 kcal/mol.
With PPDDERKKAEKAARSGNEEKAREILERFGYSEDEARELAKRLR [L28F] the “folding stability dG” value was 1.2 kcal/mol.
For PPDDERKKAEKAARSGNEEKAREILERQGYSEDEARELAKRLR [L28Q], the “folding stability dG” value was 0.844 kcal/mol.
In the case of PPDDERKKAEKAARSGNEEKAREILERRGYSEDEARELAKRLR [L28R], the “folding stability dG” value is reported as 0.697 kcal/mol.
For PPDDERKKAEKAARSGNEEKAREILERLGFSEDEARELAKRLR [Y30F], the “folding stability dG” value was 1.94 kcal/mol.
For PPDDERKKAEKAARSGNEEKAREILERLGGSEDEARELAKRLR [Y30G], the “folding stability dG” value was 0.222 kcal/mol.
With PPDDERKKAEKAARSGNEEKAREILERLGISEDEARELAKRLR [Y30I] the “folding stability dG” value was 1.06 kcal/mol.
In the case of PPDDERKKAEKAARSGNEEKAREILERLGQSEDEARELAKRLR [Y30Q], the “folding stability dG” value is reported as 0.238 kcal/mol.
For PPDDERKKAEKAARSGNEEKAREILERLGHSEDEARELAKRLR [Y30H], the “folding stability dG” value was 1.13 kcal/mol.
With PPDDERKKAEKAARSGNEEKAREILERLGTSEDEARELAKRLR [Y30T] the “folding stability dG” value was 0.175 kcal/mol.
With PPDDERKKAEKAARSGNEEKAREILERLGPSEDEARELAKRLR [Y30P] the “folding stability dG” value was 0.57 kcal/mol.
In the case of PPDDERKKAEKAARSGNEEKAREILERLGDSEDEARELAKRLR [Y30D], the “folding stability dG” value is reported as 0.243 kcal/mol.
With PPDDERKKAEKAARSGNEEKAREILERLGRSEDEARELAKRLR [Y30R] the “folding stability dG” value was 0.36 kcal/mol.
In the case of PPDDERKKAEKAARSGNEEKAREILERLGKSEDEARELAKRLR [Y30K], the “folding stability dG” value is reported as 0.407 kcal/mol.
For PPDDERKKAEKAARSGNEEKAREILERLGVSEDEARELAKRLR [Y30V], the “folding stability dG” value was 0.808 kcal/mol.
In the case of PPDDERKKAEKAARSGNEEKAREILERLGLSEDEARELAKRLR [Y30L], the “folding stability dG” value is reported as 1.79 kcal/mol.
With PPDDERKKAEKAARSGNEEKAREILERLGWSEDEARELAKRLR [Y30W] the “folding stability dG” value was 1.34 kcal/mol.
In the case of PPDDERKKAEKAARSGNEEKAREILERLGASEDEARELAKRLR [Y30A], the “folding stability dG” value is reported as 0.811 kcal/mol.
For PPDDERKKAEKAARSGNEEKAREILERLGMSEDEARELAKRLR [Y30M], the “folding stability dG” value was 1.74 kcal/mol.
For PPDDERKKAEKAARSGNEEKAREILERLGSSEDEARELAKRLR [Y30S], the “folding stability dG” value was 0.426 kcal/mol.
With PPDDERKKAEKAARSGNEEKAREILERLGESEDEARELAKRLR [Y30E] the “folding stability dG” value was 0.197 kcal/mol.
For PPDDERKKAEKAARSGNEEKAREILERLGYNEDEARELAKRLR [S31N], the “folding stability dG” value was 1.66 kcal/mol.
In the case of PPDDERKKAEKAARSGNEEKAREILERLGYVEDEARELAKRLR [S31V], the “folding stability dG” value is reported as 0.347 kcal/mol.
With PPDDERKKAEKAARSGNEEKAREILERLGYPEDEARELAKRLR [S31P] the “folding stability dG” value was 1.46 kcal/mol.
With PPDDERKKAEKAARSGNEEKAREILERLGYIEDEARELAKRLR [S31I] the “folding stability dG” value was 0.504 kcal/mol.
For PPDDERKKAEKAARSGNEEKAREILERLGYYEDEARELAKRLR [S31Y], the “folding stability dG” value was 0.287 kcal/mol.
With PPDDERKKAEKAARSGNEEKAREILERLGYREDEARELAKRLR [S31R] the “folding stability dG” value was 1.07 kcal/mol.
With PPDDERKKAEKAARSGNEEKAREILERLGYAEDEARELAKRLR [S31A] the “folding stability dG” value was 1.28 kcal/mol.
For PPDDERKKAEKAARSGNEEKAREILERLGYHEDEARELAKRLR [S31H], the “folding stability dG” value was 1.02 kcal/mol.
For PPDDERKKAEKAARSGNEEKAREILERLGYFEDEARELAKRLR [S31F], the “folding stability dG” value was 0.694 kcal/mol.
In the case of PPDDERKKAEKAARSGNEEKAREILERLGYLEDEARELAKRLR [S31L], the “folding stability dG” value is reported as 0.779 kcal/mol.
With PPDDERKKAEKAARSGNEEKAREILERLGYDEDEARELAKRLR [S31D] the “folding stability dG” value was 1.36 kcal/mol.
With PPDDERKKAEKAARSGNEEKAREILERLGYGEDEARELAKRLR [S31G] the “folding stability dG” value was 1.44 kcal/mol.
With PPDDERKKAEKAARSGNEEKAREILERLGYMEDEARELAKRLR [S31M] the “folding stability dG” value was 1.03 kcal/mol.
For PPDDERKKAEKAARSGNEEKAREILERLGYKEDEARELAKRLR [S31K], the “folding stability dG” value was 1.35 kcal/mol.
With PPDDERKKAEKAARSGNEEKAREILERLGYEEDEARELAKRLR [S31E] the “folding stability dG” value was 1.03 kcal/mol.
With PPDDERKKAEKAARSGNEEKAREILERLGYTEDEARELAKRLR [S31T] the “folding stability dG” value was 2.13 kcal/mol.
In the case of PPDDERKKAEKAARSGNEEKAREILERLGYWEDEARELAKRLR [S31W], the “folding stability dG” value is reported as 0.564 kcal/mol.
For PPDDERKKAEKAARSGNEEKAREILERLGYQEDEARELAKRLR [S31Q], the “folding stability dG” value was 1.2 kcal/mol.
